Assay results: patent US20230331821A1 (VIR BIOTECHNOLOGY, published 2023)
Like-named read-outs stand apart in the source and are kept apart here.

Tests used:
[1] = target: T1, SARS-CoV-2 Spike (S) protein, strain BetaCoV/Wuhan-Hu-1/2019, full length (SARS-CoV-2 Wuhan-Hu-1, UniProt P0DTC2 14-1273); assay: cell-based or functional assay
[2] = target: T2, SARS-CoV-2 RBD (produced in house in Expi-CHO cells; residues 331-550 of spike) (SARS-CoV-2 BetaCoV/Wuhan-Hu-1/2019, UniProt P0DTC2 331-550); assay: ELISA, antigen coated on the plate, OD 405 nm
[3] = target: T2, SARS-CoV-2 RBD (produced in house in …); assay: ELISA, antigen coated on the plate, OD 405 nm; remark: listed apart in the source
[4] = target: T2, SARS-CoV-2 RBD (produced in house in …); assay: ELISA, antigen coated on the plate, OD 405 nm; remark: listed apart in the source
[5] = target: T2, SARS-CoV-2 RBD (produced in house in …); assay: ELISA, antigen coated on the plate, OD 405 nm; remark: listed apart in the source
[6] = target: T3, SARS-CoV-1 RBD (Sino Biological) (SARS-CoV-1, UniProt P59594 306-527); assay: ELISA, antigen coated on the plate, OD 405 nm
[7] = target: T2, SARS-CoV-2 RBD (produced in house in …); assay: ELISA, antigen coated on the plate, OD 405 nm; remark: listed apart in the source
[8] = target: T3, SARS-CoV-1 RBD (Sino Biological); assay: ELISA, antigen coated on the plate, OD 405 nm; remark: listed apart in the source
[9] = target: T2, SARS-CoV-2 RBD (produced in house in …); assay: ELISA, antigen coated on the plate, OD 405 nm; remark: listed apart in the source
[10] = target: T4, SARS-CoV-1 RBD (Sino Biological) (SARS-CoV-1, UniProt P59594 306-527); assay: ELISA, antigen coated on the plate, OD 405 nm; remark: listed apart in the source
[11] = target: T4, SARS-CoV-1 RBD (Sino Biological); assay: ELISA, antigen coated on the plate, OD 405 nm; remark: listed apart in the source
[12] = target: T3, SARS-CoV-1 RBD (Sino Biological); assay: BLI (Octet), antibody on protein A sensors, RBD in solution, global fit
[13] = target: T2, SARS-CoV-2 RBD (produced in house in …); assay: as above
[14] = target: T1, SARS-CoV-2 Spike (S) protein, strain …; assay: flow cytometry, ExpiCHO cells expressing SARS-CoV-2 S; % positive cells
[15] = target: His-tagged RBD of SARS-CoV-2 (SARS-CoV-2 BetaCoV/Wuhan-Hu-1/2019, UniProt P0DTC2 331-550)
[16] = target: His-tagged RBD of SARS-CoV-1 (SARS-CoV-1, UniProt P59594 306-527)
[17] = target: SARS-CoV-1 Spike (S) protein, strain SARS, on ExpiCHO cells (SARS-CoV (SARS-CoV-1), strain SARS, UniProt P59594 14-1255); assay: flow cytometry, ExpiCHO cells expressing SARS-CoV-1 S; % positive cells
[18] = target: T1, SARS-CoV-2 Spike (S) protein, strain …

B1: SARS-CoV-2 S303 mAb (B cell supernatant) (antibody, V domains shown)
VH: EVQLVESGGGLVKPGGSLRLSCAASGFTFLTYSMNWVRQTPGKRLQWVSAISGSGGATYYADSVKGRFTISRDNSKNTLYLQMNTVTADDTAIYFCARERDDIFPMGLNAFDIWGQGAMVIVSS
VL: DIQMTQSPSTLSASVGDRVTITCRASQSISNWLAWYQQKPGKAPKLLIYKASSLESGVPSRFSGSGSGTEFTLTISSLQPDDSATYYCQQYDTYSWTFGQGTKVEIK
Percent neutralization of infection, dilution 2 [1]: 6% | Percent neutralization of infection, dilution 6 [1]: 5% | Percent neutralization of infection, dilution 18 [1]: 2% | Percent neutralization of infection, dilution 54 [1]: 12%

B2: SARS-CoV-2 S304 mAb (B cell supernatant) (antibody, V domains shown)
VH: EVQLVESGGGLVQPGGSLRLSCAASGFTFSSYDMHWVRQTTGKGLEWVSTIGTAGDTYYPDSVKGRFTISREDAKNSLYLQMNSLRAGDTAVYYCARGDSSGYYYYFDYWGQGTLLTVSS
VL: DIQMTQSPSSLSAAVGDRVTITCRASQSIGSYLNWYQQKPGKAPKLLIYAASSLQSGVPSRFSGSGSGTDFTLTISSLQPEDFAIYYCQQSYVSPTYTFGPGTKVDIK
Percent neutralization of infection, dilution 2 [1]: -21% | Percent neutralization of infection, dilution 6 [1]: 25% | Percent neutralization of infection, dilution 18 [1]: -22% | Percent neutralization of infection, dilution 54 [1]: 7%

B3: SARS-CoV-2 S306 mAb (B cell supernatant) (antibody, V domains shown)
VH: QVQLVQSGAEVKKPGASVKVSCKASTYTFTSFGISWVRQAPGQGLEWMGWITTYSGDTNYAQKFQGRVTMTTDTSTNTAYMELRSLRSDDTAVYYCASDYFDSSGYYHSFDYWGQGTLVTVSS
VL: EIVLTQSPDTLSLSPGERATLSCRASQSVSSYLAWYQQRPGQAPRLLIYDASKRATGIPARFSGSGSGTDFTLTISSLEPEDFAVYYCQQRSNWPPGCSFGQGTKVEIK
Percent neutralization of infection, dilution 2 [1]: -19% | Percent neutralization of infection, dilution 6 [1]: 15% | Percent neutralization of infection, dilution 18 [1]: -9% | Percent neutralization of infection, dilution 54 [1]: 6%

B4: SARS-CoV-2 S308 mAb (B cell supernatant) (antibody, V domains shown)
VH: QVQLVESGGGVVQPGRSLRLSCAASRFTFSSYGMHWVRQAPGKGLEWVAVIWHDGNNKHYGDSVKGRVTISRDNSKNTLYLQMTSLRAEDTAVYYCARAVTTFKGSGRARMRGMDVWGQGTTVTVSS
VL: DIQLTQSPSFLSASVGDRVTITCRASQGINTYLAWYQQKPGKAPKLLIYAASTLQSGVPSRFSGSGSGTEFTLTISSLQPEDFATYYCQHLDTYPFTFGPGTKVDIK
Percent neutralization of infection, dilution 2 [1]: -46% | Percent neutralization of infection, dilution 6 [1]: 19% | Percent neutralization of infection, dilution 18 [1]: 32% | Percent neutralization of infection, dilution 54 [1]: 16%

B5: S304-rIgG1-LS (antibody, V domains shown)
VH: B2 VH
VL: B2 VL
EC50 (read off the curve) [2]: ~0.1 µg/mL | EC50 (read off the curve) [3]: ~0.1 µg/mL

B6: S315 rIgG1-MLNS (antibody, V domains shown)
VH: EVQLVESGGGLVQPGGSLRLSCAASGFTFSNYWMTWVRQAPGKGLEWVANIKQDGSEKYYVDSVKGRFTISRDNAKNSLYLQMNSLRAEDTAVYYCARDLWWNDQAHYYGMDVWGQGTTVTVSS
VL: SYELTQPPSVSVSPGQTARITCSGDAFPNQYAYWYQQKPGQAPVMLIYKDSERPSGIPERFFGSSSGTTVTLTIRGVQAEDEADYYCQSADSSGTVFGGGTKLTVL
EC50 (read off the curve) [4]: ~0.2 µg/mL | EC50 (read off the curve) [5]: ~0.2 µg/mL

B7: S303-rIgG1-LS (antibody, V domains shown)
VH: B1 VH
VL: B1 VL
EC50 (read off the curve) [6]: ~0.03 µg/mL | EC50 (read off the curve) [7]: ~0.09 µg/mL | EC50 (read off the curve) [8]: ~0.03 µg/mL | EC50 (read off the curve) [9]: ~0.09 µg/mL

B8: S110 (antibody, V domains shown)
VH: QVQLVESGGGLVQAGGSLRLSCAASGRTFSSAGMAWFRQAPGKEREFVATSNWNGGDTDYADSVKGRFTISRDNAKNTVYLQMNNLKPEDTAVYYCAAHLQKYGGDYYARIWGQGTQVTVS
EC50 (read off the curve) [10]: ~0.08 µg/mL | EC50 (read off the curve) [11]: ~0.08 µg/mL

B9: S303 rIgG1 (antibody, V domains shown)
VH: B1 VH
VL: B1 VL
Kd [12]: < 0.001 nM | Kd [13]: 23.6 nM | EC50 (read off the curve) [14]: ~0.4 µg/mL | Kd [15]: 23.6 nM | Kd [16]: < 0.001 nM | EC50 (read off the curve) [17]: ~0.001 µg/mL | EC50 [18]: 0.383 µg/mL

B10: S306 (antibody, V domains shown)
VH: B3 VH
VL: B3 VL
EC50 (read off the curve) [17]: ~0.02 µg/mL

B11: S310 (antibody, V domains shown)
VH: QVQLVQSGAELKKPGSSVKVSCKASGGTFNSYSFNWVRQAPGQGLEWLGGIIPVLGTSNYAQKFQGRVAVTADEFTTTAYMELSSLRSEDTAVYYCATRTYDSSGYRPYYYGLDVWGQGTPVTVSS
VL: QSALTQPASVSGSPGQSITISCTGTSSDVGSYNLVSWYQQRPGKAPELMIYEVTKRPSGLSNRFSGSKSGNTASLTISGLQAEDEADYYCCSYAGSDTVIFGGGTKVTVL
EC50 (read off the curve) [17]: ~0.2 µg/mL
